From patent US20220049021A1 come the findings set out here.

In the test the target is T1, human FLT3 on AML5 cells (human) (UniProt P36888).
T1 sequence (looked up): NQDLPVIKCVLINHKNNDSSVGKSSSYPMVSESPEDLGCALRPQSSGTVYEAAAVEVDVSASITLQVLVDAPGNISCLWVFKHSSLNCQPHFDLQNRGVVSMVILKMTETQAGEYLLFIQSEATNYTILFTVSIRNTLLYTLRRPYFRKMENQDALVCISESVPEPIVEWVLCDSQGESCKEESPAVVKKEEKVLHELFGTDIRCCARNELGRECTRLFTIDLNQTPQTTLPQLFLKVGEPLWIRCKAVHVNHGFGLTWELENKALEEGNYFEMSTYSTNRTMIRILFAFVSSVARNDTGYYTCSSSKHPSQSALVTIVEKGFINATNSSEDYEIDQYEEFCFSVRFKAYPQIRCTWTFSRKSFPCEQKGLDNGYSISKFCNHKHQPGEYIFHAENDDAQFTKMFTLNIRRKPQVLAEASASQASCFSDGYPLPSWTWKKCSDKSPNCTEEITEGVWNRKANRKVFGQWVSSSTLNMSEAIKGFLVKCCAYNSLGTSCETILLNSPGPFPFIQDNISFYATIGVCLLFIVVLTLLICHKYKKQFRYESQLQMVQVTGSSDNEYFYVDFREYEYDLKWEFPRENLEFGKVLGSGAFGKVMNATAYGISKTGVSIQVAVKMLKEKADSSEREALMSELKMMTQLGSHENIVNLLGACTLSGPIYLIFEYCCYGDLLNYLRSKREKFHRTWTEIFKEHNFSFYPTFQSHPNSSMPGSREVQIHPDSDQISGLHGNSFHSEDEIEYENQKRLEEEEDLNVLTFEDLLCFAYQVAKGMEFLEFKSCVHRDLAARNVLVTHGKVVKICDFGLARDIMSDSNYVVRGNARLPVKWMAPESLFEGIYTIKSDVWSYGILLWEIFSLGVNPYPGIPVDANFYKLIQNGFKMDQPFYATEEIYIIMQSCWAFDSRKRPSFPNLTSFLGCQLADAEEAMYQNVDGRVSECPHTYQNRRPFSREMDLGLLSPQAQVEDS
The test is described as follows: cell-based or functional assay.

human FLT3-ligand (H8Y) human hingeless IgG1 fusion protein (SEQ ID NO:22) (Fc fusion), sequence (chain): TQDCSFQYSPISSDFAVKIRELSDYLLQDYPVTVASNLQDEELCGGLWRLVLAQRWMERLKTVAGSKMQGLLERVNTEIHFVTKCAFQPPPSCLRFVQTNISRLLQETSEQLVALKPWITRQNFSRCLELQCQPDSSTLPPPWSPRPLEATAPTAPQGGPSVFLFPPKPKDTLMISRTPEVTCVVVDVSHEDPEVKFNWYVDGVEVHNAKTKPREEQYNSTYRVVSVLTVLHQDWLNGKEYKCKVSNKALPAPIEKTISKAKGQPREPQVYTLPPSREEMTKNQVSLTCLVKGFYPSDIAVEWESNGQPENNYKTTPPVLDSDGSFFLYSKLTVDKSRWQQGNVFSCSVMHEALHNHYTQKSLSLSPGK
human FLT3-ligand human IgG1 fusion protein (SEQ ID NO:21) (Fc fusion), sequence (chain): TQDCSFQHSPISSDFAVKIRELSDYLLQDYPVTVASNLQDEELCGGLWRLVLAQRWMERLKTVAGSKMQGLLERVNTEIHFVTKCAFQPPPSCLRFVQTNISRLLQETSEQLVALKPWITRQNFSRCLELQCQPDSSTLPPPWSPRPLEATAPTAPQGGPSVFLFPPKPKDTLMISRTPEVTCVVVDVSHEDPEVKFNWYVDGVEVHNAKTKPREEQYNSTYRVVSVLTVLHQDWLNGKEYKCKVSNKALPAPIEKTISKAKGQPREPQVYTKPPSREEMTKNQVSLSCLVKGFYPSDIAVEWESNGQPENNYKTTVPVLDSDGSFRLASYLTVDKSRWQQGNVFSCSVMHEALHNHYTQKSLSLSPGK

In the case of “human FLT3-ligand (K84E) human hingeless IgG1 fusion protein (SEQ ID NO:23) (Fc fusion)”, the EC50 (nM), Inducing Proliferation of AML5 Cells turned out to be 0.013 nM and the potency in AML5 proliferation against SEQ ID NO:1 was found to be 2.5 fold.
The substance “human FLT3-ligand (H8Y+K84E) human hingeless IgG1 fusion protein (SEQ ID NO:24) (Fc fusion)” returned an EC50 (nM), Inducing Proliferation of AML5 Cells of 0.013 nM and a potency in AML5 proliferation against SEQ ID NO:1 of 2.5 fold.
Taken in the same sequence, the figures for “human FLT3-ligand (H8Y) human hingeless IgG1 fusion protein (SEQ ID NO:22) (Fc fusion)” were 0.014 nM and 2.5 fold.
Turning to “human FLT3-ligand human IgG1 fusion protein (SEQ ID NO:21) (Fc fusion)”, the EC50 (nM), Inducing Proliferation of AML5 Cells amounted to 0.035 nM.
